The source of these data is paper PMC5429572, “Intrabodies against the Polysialyltransferases ST8SiaII and ST8SiaIV inhibit Polysialylation of NCAM in rhabdomyosarcoma tumor cells” (BMC Biotechnology, 2017).

Assay [1] concerns the target T1, Flag-HA-tagged ST8SiaII expressed in HEK293 cells (Mus musculus (assumed), UniProt O35696, N-glycosylated (several glycoforms, fully glycosylated about 60 kDa)).
T1 construct: polysialyltransferase ST8SiaII; The empty vector of the control is pcDNA3-FLAG-HA; The CHO line of the functional rows carries N-terminally Flag-HA-tagged murine ST8SiaII; also called polyST; source: HEK293, transiently transfected, in lysate
Description: co-IP; HEK293 cells co-transfected with Flag-HA-tagged polyST and myc-tagged intrabody; lysis in 50 mM Tris-HCl pH 8, 1 mM MgCl2, 1% NP-40; precipitated with anti-myc antibody and Protein G PLUS Agarose; blot with anti-FLAG M5. The conditions noted are these: partners not purified.

Assay [2] addresses T2, Flag-HA-tagged ST8SiaIV expressed in HEK293 cells (Cricetulus griseus (assumed), UniProt Q64690, N-glycosylated (several glycoforms, fully glycosylated about 55 kDa)).
T2 construct: polysialyltransferase ST8SiaIV; The empty vector of the control is pcDNA3-FLAG-HA; The CHO line of the functional rows carries Flag-HA-tagged hamster ST8SiaIV; also called ST8SiaVI; polyST; source: HEK293, transiently transfected, in lysate
The description is as above. The conditions noted are these: partners not purified.

T2 sequence (Q64690 whole entry): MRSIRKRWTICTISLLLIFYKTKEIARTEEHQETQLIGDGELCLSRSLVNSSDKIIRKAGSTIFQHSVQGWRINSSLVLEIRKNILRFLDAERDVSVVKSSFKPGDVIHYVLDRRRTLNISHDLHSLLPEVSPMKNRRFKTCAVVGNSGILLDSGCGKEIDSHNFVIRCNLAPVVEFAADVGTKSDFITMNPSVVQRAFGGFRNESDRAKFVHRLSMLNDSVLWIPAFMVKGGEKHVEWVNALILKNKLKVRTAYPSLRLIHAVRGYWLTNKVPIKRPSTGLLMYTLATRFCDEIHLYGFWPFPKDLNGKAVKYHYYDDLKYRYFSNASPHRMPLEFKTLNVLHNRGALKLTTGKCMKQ
T1 sequence (O35696 whole entry): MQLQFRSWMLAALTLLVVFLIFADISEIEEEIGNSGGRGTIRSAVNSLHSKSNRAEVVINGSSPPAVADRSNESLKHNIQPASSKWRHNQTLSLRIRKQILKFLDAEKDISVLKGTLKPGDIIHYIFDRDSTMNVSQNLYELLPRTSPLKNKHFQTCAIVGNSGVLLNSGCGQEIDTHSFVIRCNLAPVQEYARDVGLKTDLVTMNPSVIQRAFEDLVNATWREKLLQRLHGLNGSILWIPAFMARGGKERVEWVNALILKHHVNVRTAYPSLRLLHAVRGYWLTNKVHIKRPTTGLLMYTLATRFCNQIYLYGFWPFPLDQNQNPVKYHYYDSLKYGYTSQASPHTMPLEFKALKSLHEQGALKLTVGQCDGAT

B1: αST8SiaII-IB (ER intrabody against ST8SiaII, scFv from mAb 3167) (scFv, V domains shown)
VH: QVQLQQPGAELVKAGASVKLSCKASGYTFTNYWMHWVKQRPGQGLEWIGEIDPSESYTNYNQKFKGKATLTVDKSASTAYMQLSSLTSEDSAVYYCTRGDYWGQGTTLTVSS
VL: DVVVTQTPLSLPVSFGDQVSISCRSSQSLANSYGNTYLSWYLHKPGQSPQLLIYGISNRFSGVPDRFSGSGSGTDFTLKISTIKPEDLGIYYCLQGAHQPWTFGGGTKLEIK
notes: synthetic linker, printed as (Gly4 Ser)3; Encoded with an N-terminal ER signal peptide from the vector pCMV/myc/ER; the myc tag is followed by the ER retention signal; also called anti-ST8SiaII-IB; anti-ST8SiaII intrabody; source: HEK293, transiently transfected (pCMV/myc/ER), in lysate; not shown: myc, C-terminal, kept
On to B1, for which, in assay [1], the binding result is given as “binds”.

B2: αST8SiaIV-IB (ER intrabody against ST8SiaIV, scFv from mAb 3175) (scFv, V domains shown)
VH: EVQLQQSGAELVRSGASVKLSCTTSGFNIKDYYMHWVKQRPEQGLEWIGWIDPENGDTEYAPKFQGKATMTADTSSNTAYLQLSSLTSEDTAVYYCNYRFLAMEYWGQGTSVTVSS
VL: NIMMTQSPSSLAVSAGEKVTMSCKSSQSVLYTSNQKNYLAWYQQKPGQSPKLLIYWASTRESGVPDRFTGSGSGTDFTLTISSVQAEDLAVYYCHQYLSSYTFGGGTKLEIK
notes: synthetic linker, printed as (Gly4 Ser)3; Encoded with an N-terminal ER signal peptide from the vector pCMV/myc/ER; the myc tag is followed by the ER retention signal; also called anti-ST8SiaIV-IB; anti-ST8SiaIV intrabody; source: HEK293, transiently transfected (pCMV/myc/ER), in lysate; not shown: myc, C-terminal, kept
For the molecule B2, the binding result in assay [2] was “binds”.
